Residue numbers refer to the chain shown, from its start. No end group written: not given here.

T1: UBXD1-PUB (150–264) Q200A (UniProt Q9BZV1 150-264, Q200A)
T1 construct: UBXD1 PUB domain construct, residues 150-264, point mutant; source: E. coli Rosetta2, purified (Ni-NTA, thrombin cleavage of the tag, SEC); not shown: His6, N-terminal, cleaved
T1 sequence (looked up): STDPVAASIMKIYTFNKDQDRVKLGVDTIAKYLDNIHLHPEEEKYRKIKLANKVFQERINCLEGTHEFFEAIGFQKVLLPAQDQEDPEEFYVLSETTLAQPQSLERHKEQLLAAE

T2: UBXD1-PUB (150–264) N201A (UniProt Q9BZV1 150-264, N201A)
T2 construct: UBXD1 PUB domain construct, residues 150-264, point mutant; source: E. coli Rosetta2, purified (Ni-NTA, thrombin cleavage of the tag, SEC); not shown: His6, N-terminal, cleaved
T2 sequence (looked up): T1 sequence (looked up) with A51Q, N52A

T3: UBXD1-PUB (150–264) N201D (UniProt Q9BZV1 150-264, N201D)
T3 construct: UBXD1 PUB domain construct, residues 150-264, point mutant; source: E. coli Rosetta2, purified (Ni-NTA, thrombin cleavage of the tag, SEC); not shown: His6, N-terminal, cleaved
T3 sequence (looked up): T1 sequence (looked up) with A51Q, N52D

T4: UBXD1-PUB (150–264) V203A (UniProt Q9BZV1 150-264, V203A)
T4 construct: UBXD1 PUB domain construct, residues 150-264, point mutant; source: E. coli Rosetta2, purified (Ni-NTA, thrombin cleavage of the tag, SEC); not shown: His6, N-terminal, cleaved
T4 sequence (looked up): T1 sequence (looked up) with A51Q, V54A

T5: UBXD1-PUB (150–264) E206R (UniProt Q9BZV1 150-264, E206R)
T5 construct: UBXD1 PUB domain construct, residues 150-264, point mutant; source: E. coli Rosetta2, purified (Ni-NTA, thrombin cleavage of the tag, SEC); not shown: His6, N-terminal, cleaved
T5 sequence (looked up): T1 sequence (looked up) with A51Q, E57R

T6: UBXD1-PUB (150–264) R207E (UniProt Q9BZV1 150-264, R207E)
T6 construct: UBXD1 PUB domain construct, residues 150-264, point mutant; source: E. coli Rosetta2, purified (Ni-NTA, thrombin cleavage of the tag, SEC); not shown: His6, N-terminal, cleaved
T6 sequence (looked up): T1 sequence (looked up) with A51Q, R58E

T7: UBXD1-PUB (150–264) Y181A (UniProt Q9BZV1 150-264, Y181A)
T7 construct: UBXD1 PUB domain construct, residues 150-264, point mutant; source: E. coli Rosetta2, purified (Ni-NTA, thrombin cleavage of the tag, SEC); not shown: His6, N-terminal, cleaved
T7 sequence (looked up): T1 sequence (looked up) with Y32A, A51Q

T8: UBXD1-PUB (150–264) Y181F (UniProt Q9BZV1 150-264, Y181F)
T8 construct: UBXD1 PUB domain construct, residues 150-264, point mutant; source: E. coli Rosetta2, purified (Ni-NTA, thrombin cleavage of the tag, SEC); not shown: His6, N-terminal, cleaved
T8 sequence (looked up): T1 sequence (looked up) with Y32F, A51Q

T9: UBXD1-PUB (150–264) N184A (UniProt Q9BZV1 150-264, N184A)
T9 construct: UBXD1 PUB domain construct, residues 150-264, point mutant; source: E. coli Rosetta2, purified (Ni-NTA, thrombin cleavage of the tag, SEC); not shown: His6, N-terminal, cleaved
T9 sequence (looked up): T1 sequence (looked up) with N35A, A51Q

T10: UBXD1-PUB (150–264) N184D (UniProt Q9BZV1 150-264, N184D)
T10 construct: UBXD1 PUB domain construct, residues 150-264, point mutant; source: E. coli Rosetta2, purified (Ni-NTA, thrombin cleavage of the tag, SEC); not shown: His6, N-terminal, cleaved
T10 sequence (looked up): T1 sequence (looked up) with N35D, A51Q

T11: UBXD1-PUB (150–264) K193E (UniProt Q9BZV1 150-264, K193E)
T11 construct: UBXD1 PUB domain construct, residues 150-264, point mutant; source: E. coli Rosetta2, purified (Ni-NTA, thrombin cleavage of the tag, SEC); not shown: His6, N-terminal, cleaved
T11 sequence (looked up): T1 sequence (looked up) with K44E, A51Q

T12: UBXD1-PUB (150–264) Y194A (UniProt Q9BZV1 150-264, Y194A)
T12 construct: UBXD1 PUB domain construct, residues 150-264, point mutant; source: E. coli Rosetta2, purified (Ni-NTA, thrombin cleavage of the tag, SEC); not shown: His6, N-terminal, cleaved
T12 sequence (looked up): T1 sequence (looked up) with Y45A, A51Q

T13: UBXD1-PUB (150–264) Y194F (UniProt Q9BZV1 150-264, Y194F)
T13 construct: UBXD1 PUB domain construct, residues 150-264, point mutant; source: E. coli Rosetta2, purified (Ni-NTA, thrombin cleavage of the tag, SEC); not shown: His6, N-terminal, cleaved
T13 sequence (looked up): T1 sequence (looked up) with Y45F, A51Q

T14: UBXD1-PUB (150–264) K198E (UniProt Q9BZV1 150-264, K198E)
T14 construct: UBXD1 PUB domain construct, residues 150-264, point mutant; source: E. coli Rosetta2, purified (Ni-NTA, thrombin cleavage of the tag, SEC); not shown: His6, N-terminal, cleaved
T14 sequence (looked up): T1 sequence (looked up) with K49E, A51Q

B1: p97-C10 peptide (unlabeled) (peptide)
peptide: TEDNDDDLYG
notes: also called p97-PIM; p97-C10 PIM peptide; source: synthetic peptide, bought: Caslo ApS (Denmark)
B2: UBXD1-PUB (150–264) (domain or fragment, UniProt Q9BZV1 150-264, looked up)
chain: T1 sequence (looked up) with A51Q
notes: UBXD1 (ubiquitin regulatory X domain protein 1), PUB domain construct, residues 150-264; Cloned into pET28a (NdeI/HindIII); a few vector residues probably remain after thrombin cleavage (surmised); Theoretical MW 13.80 kDa; 15N- or 13C,15N-labelled for NMR; also called UBXD1-PUB wt; wild type (wt); source: E. coli Rosetta2, purified (Ni-NTA, thrombin cleavage of the tag, SEC); not shown: His6, …
B3: 5,6-FAM-labeled p97-C10 peptide (peptide)
peptide: TEDNDDDLYG
modifications: also: 5,6-FAM label, position not given here
notes: source: synthetic peptide, bought: Caslo ApS (Denmark)

Common to all, as to conditions: both partners purified
Experiment [1] has as its target B2. The experiment in a line: ITC; UBXD1-PUB (100 µM) titrated with 1 mM p97-C10 peptide; 50 mM NaKPi pH 6.5, 25 °C; single-site model; triplicate, parameters averaged. Background: Isothermal titration calorimetry measures the heat released or taken up as one component is titrated into another.
The next experiment deals with T15, full-length p97 (UniProt P55072 1-806).
T15 construct: AAA+ ATPase p97 / valosin-containing protein (VCP) / Cdc48, full length; Cloning, tags and purification of p97-fl are not described; the methods say only that 'all proteins were expressed in Escherichia coli Rosetta2' and purified by Ni-NTA and SEC after thrombin cleavage; also called p97-fl; VCP
The experiment in a line: fluorescence polarisation; fluorescence anisotropy of UBXD1-PUB wt with full length p97; which partner was labeled and titrated is not told. A general note: Polarisation of emitted light reports the rotation of a fluorescent probe.

The target in experiment [2] is B2. In words: fluorescence polarisation; fluorescence anisotropy; PUB constructs titrated to 100 nM 5,6-FAM labeled p97-C10 peptide; 50 mM NaKPi pH 6.5, 25 °C; triplicate; one-site quadratic fit.
Experiment [3] concerns the target T1, UBXD1-PUB (150–264) Q200A. Described as above.
In experiment [4] the target is T2, UBXD1-PUB (150–264) N201A. The experiment is described as above.
In experiment [5] the target is T3, UBXD1-PUB (150–264) N201D. The experiment is described as above.
In experiment [6] the target is T4, UBXD1-PUB (150–264) V203A. Described as above.
In experiment [7] the target is T5, UBXD1-PUB (150–264) E206R. The experiment is described as above.
Experiment [8] addresses T6, UBXD1-PUB (150–264) R207E. The experiment is described as above.
For experiment [9], the target named is T7, UBXD1-PUB (150–264) Y181A. The experiment is described as above.
Experiment [10] addresses T8, UBXD1-PUB (150–264) Y181F. The experiment is described as above.
The target in experiment [11] is T9, UBXD1-PUB (150–264) N184A. The description is as above.
Experiment [12] has as its target T10, UBXD1-PUB (150–264) N184D. The description is as above.
In experiment [13] the target is T11, UBXD1-PUB (150–264) K193E. Described as above.
Experiment [14] concerns the target T12, UBXD1-PUB (150–264) Y194A. The description is as above.
The target in experiment [15] is T13, UBXD1-PUB (150–264) Y194F. Described as above.
Experiment [16] concerns the target T14, UBXD1-PUB (150–264) K198E. The description is as above.

T15 sequence (P55072 whole entry): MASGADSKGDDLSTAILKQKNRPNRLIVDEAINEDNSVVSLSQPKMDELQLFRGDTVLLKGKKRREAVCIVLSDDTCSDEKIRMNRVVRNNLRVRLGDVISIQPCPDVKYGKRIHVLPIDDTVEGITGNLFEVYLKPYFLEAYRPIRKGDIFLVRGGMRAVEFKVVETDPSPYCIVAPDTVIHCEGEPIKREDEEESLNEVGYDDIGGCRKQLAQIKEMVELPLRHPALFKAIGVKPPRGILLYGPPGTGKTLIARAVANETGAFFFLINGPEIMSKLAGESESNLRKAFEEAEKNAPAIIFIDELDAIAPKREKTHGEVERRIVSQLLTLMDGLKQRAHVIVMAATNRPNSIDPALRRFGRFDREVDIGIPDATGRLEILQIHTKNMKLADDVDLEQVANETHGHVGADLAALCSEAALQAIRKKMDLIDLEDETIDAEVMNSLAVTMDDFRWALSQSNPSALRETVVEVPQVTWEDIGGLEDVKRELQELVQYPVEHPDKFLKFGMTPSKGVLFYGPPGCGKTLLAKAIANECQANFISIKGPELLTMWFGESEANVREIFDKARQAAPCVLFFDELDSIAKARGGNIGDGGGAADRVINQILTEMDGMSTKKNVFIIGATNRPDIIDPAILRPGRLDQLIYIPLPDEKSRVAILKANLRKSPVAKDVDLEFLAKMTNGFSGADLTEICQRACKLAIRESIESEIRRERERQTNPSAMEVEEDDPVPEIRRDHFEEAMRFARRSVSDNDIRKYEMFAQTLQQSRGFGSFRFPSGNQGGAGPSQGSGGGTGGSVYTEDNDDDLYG

Consider B1, for which, in the experiment with UBXD1-PUB (150–264) [1], the Kd (commonly the equilibrium constant for the complex coming apart) came out at 15 ± 5 µM; the dH was -3.25 ± 0.483 kcal/mol; the stoichiometry N (commonly the number of molecules, sites or subunits per partner or assembly) was determined as 1.1 ± 0.2.

As to B2, in the experiment with full-length p97, binding was put at a Kd of 8.4 µM.

As for B3, the dissociation constant (Kd) with UBXD1-PUB (150–264) [2] turned out to be 13.8 µM; in experiment [3], 8.3 µM; in experiment [4], 64.1 µM; in experiment [5] it was 280 µM; in experiment [6], 25.3 µM; in experiment [7], 39.4 µM. Also, the Kd in experiment [8] turned out to be 88 µM; in experiment [9], 111 µM; in experiment [10], 28.4 µM; in [11], 28.7 µM; in experiment [12] it was 80 µM; in experiment [13], 17.7 µM. In addition, the Kd in experiment [14] came out at 53 µM; in [15], 141 µM; in experiment [16], 49.3 µM.

(Values after paper PMC6995525, “Structure of the PUB Domain from Ubiquitin Regulatory X Domain Protein 1 (UBXD1) and Its Interaction with the p97 AAA+ ATPase” (Biomolecules, 2019).)
